Here are results for 1 molecule from patent publication US20200062863A1 (CSL BEHRING, published 2020).

The target in assay [1] is T1, recombinant wild-type murine Factor XII (Mu-FXII) with C-terminal 8xHis-tag (mouse, UniProt Q80YC5 20-597).
T1 construct: cDNA of the entire Mu-FXII protein (GenBank NM_021489) expressed in Freestyle 293 cells, culture supernatant used; also called recombinant murine FXII; wild-type Mu-FXII
T1 sequence: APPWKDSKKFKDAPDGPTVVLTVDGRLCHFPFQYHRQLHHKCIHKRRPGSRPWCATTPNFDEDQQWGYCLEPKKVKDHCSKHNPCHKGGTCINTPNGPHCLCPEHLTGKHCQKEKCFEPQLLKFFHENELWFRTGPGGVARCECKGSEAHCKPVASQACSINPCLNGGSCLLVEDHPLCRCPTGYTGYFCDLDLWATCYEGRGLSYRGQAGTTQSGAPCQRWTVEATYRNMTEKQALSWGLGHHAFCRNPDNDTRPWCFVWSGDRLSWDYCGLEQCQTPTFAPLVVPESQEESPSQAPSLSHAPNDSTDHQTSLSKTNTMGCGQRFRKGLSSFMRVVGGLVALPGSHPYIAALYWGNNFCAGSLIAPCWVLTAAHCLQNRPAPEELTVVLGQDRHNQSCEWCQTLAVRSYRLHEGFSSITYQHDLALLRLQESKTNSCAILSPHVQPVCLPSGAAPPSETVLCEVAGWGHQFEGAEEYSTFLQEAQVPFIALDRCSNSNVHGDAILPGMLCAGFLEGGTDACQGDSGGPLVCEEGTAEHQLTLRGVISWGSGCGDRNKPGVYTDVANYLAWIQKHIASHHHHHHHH
Put plainly: Western blot, non-reducing. The procedure:
Proteins were then transferred electrophoretically onto nitrocellulose filters and blocked for 1 hour in 5% Milk powder in Tris-buffered saline with 0.05% Tween-20 (TTBS). Filters were then incubated for 1 hour with either 3F7 mAb or an anti-His mAb 3H3 (both at […] in TTBS with 5% Milk powder), washed thoroughly with TTBS, then incubated for a further hour with anti-human IgG-FITC or anti-mouse IgG-FITC, respectively (Millipore, USA; both at 0.25 mg/ml in TTBS with 5% Milk powder). Following further washing of membranes in TTBS, Ab-FITC bound proteins were visualized using a Typhoon variable mode analyzer (GE Healthcare, USA).
On the technique in general: Immunoblotting shows a protein as a band on a membrane.

For a further assay, the target named is T2, human Factor XII (human, UniProt P00748 20-615).
T2 construct: Zymogen bought from Enzyme Research Laboratories; also called FXII
T2 sequence: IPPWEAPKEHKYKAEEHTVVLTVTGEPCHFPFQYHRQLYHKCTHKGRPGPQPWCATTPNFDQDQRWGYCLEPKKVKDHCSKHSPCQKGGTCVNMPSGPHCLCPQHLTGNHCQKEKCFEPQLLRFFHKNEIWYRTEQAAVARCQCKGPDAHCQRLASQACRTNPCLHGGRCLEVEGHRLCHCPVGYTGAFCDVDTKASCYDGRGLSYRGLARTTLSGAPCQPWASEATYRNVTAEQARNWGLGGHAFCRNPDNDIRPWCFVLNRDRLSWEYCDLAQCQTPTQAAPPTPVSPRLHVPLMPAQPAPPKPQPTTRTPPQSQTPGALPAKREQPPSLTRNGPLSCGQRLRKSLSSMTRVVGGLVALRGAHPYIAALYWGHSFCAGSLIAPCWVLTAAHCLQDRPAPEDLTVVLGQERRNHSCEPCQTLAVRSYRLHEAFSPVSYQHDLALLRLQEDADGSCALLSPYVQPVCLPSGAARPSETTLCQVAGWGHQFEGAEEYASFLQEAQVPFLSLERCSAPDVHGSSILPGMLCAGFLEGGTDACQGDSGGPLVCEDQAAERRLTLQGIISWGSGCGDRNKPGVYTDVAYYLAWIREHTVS
The experiment in a line: SPR (Biacore), purified IgG captured on anti-human IgG, FXII 0-500 nM, 1:1 fit, 25 C. In general terms: In SPR one partner is held on a chip, and binding of the other changes the refractive index at the surface.

The next assay addresses T3, human Factor XIIa-beta (human, UniProt P00748 354-615, limits assumed).
T3 construct: Bought from Enzyme Research Laboratories; also called FXIIa beta; FXIIa-beta
T3 sequence: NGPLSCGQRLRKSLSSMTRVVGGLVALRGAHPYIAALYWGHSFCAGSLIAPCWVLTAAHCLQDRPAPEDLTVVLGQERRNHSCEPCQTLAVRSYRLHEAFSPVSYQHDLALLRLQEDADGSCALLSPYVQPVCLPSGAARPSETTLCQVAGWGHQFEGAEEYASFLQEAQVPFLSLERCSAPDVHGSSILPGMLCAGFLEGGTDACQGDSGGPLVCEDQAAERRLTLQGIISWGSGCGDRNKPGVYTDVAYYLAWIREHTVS
The experiment in a line: SPR (Biacore A100), unpurified IgG4 supernatant captured on anti-human IgG, single FXIIa beta concentration (100 nM), 37 C, 1:1 fit; estimated. The procedure: Anti-human (Goat anti-human IgG (gamma) mouse adsorbed, Invitrogen, Cat No. H10500) was chemically immobilised on a CM-5 sensor surface using amine coupling chemistry. Culture supernatants were diluted 1/60 with running buffer before capture. Antibodies were captured for 180 seconds representing an average capture of 800 response units (RU). FXIIa beta was then injected at zero and 100 nM for 180 seconds, and dissociated for 180 seconds. All assays were conducted on a Biacore A100 instrument at 37 degrees Celsius and the data fitted to a 1:1 kinetic model.

In another assay the target is T4, human FXIIa (human, UniProt P00748 20-615, limits assumed).
T4 sequence: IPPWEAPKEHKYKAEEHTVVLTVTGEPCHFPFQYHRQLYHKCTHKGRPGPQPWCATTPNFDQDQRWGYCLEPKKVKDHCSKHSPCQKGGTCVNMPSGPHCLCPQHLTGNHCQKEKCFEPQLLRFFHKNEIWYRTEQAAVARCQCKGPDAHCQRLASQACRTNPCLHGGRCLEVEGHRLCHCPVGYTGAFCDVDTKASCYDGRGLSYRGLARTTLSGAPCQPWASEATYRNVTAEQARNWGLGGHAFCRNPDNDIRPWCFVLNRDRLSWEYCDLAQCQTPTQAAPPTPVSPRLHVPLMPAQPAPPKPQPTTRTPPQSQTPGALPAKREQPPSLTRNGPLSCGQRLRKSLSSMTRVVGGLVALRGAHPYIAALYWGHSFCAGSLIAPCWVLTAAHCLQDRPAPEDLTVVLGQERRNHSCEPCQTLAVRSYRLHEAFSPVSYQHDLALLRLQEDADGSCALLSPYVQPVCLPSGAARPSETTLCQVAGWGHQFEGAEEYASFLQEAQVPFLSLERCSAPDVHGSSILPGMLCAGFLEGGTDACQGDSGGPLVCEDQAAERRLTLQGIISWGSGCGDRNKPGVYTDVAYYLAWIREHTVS
The experiment in a line: cell-based or functional assay.

B1: monoclonal antibody 3F7 (fully human IgG4/lambda) (antibody, V domains shown)
VH: EVQLLESGGGLVQPGGSLRLSCAASGFTFSKYIMQWVRQAPGKGLEWVSGIRPSGGTTVYADSVKGRFTISRDNSKNTLYLQMNSLRAEDTAVYYCARALPRSGYLISPHYYYYALDVWGQGTTVTVSS
VL: QSELTQPPSASGTPGQRVTISCSGSSSNIGRNYVYWYQQVPGTAPKLLIYSNNQRPSGVPDRFSGSKSGTSASLVISGLRSEDEADYYCAAWDASLRGVFGGGTKLTVLG
notes: also called 3F7 mAb; MAb 3F7
By Kd is commonly meant the concentration at which binding is half-saturated. As for B1, the binding result in assay [1] is recorded as “binds”. The equilibrium dissociation constant (Kd) is 121 nM with human Factor XII and 33 nM in the assay with human Factor XIIa-beta. In addition, the “IC50 (read off the curve)” value with human FXIIa is ~10 nM.
